Measurements from patent US11925667B2, “Engineered therapeutic probiotic system and method” (priority 2018, dated 2024).

Tested on: C=CC/C(=N/OS(=O)(=O)O)S[C@@H]1O[C@H](CO)[C@@H](O)[C@H](O)[C@H]1O
Experiment: Myrosinase activity assay (glucose release from sinigrin hydrolysis), TGG1
Type: biochemical, Arabidopsis thaliana
Procedure: Screening for improved β-thioglucosidase. The activity and stability of myrosinase, a β-thioglucosidase that hydrolyzes glucosinolate to sulforaphane, varies at differing pH and temperature; in a preferred embodiment the selected enzyme needs to function under physiological colorectal conditions. The healthy colon pH averages 6.6, while it is 7.0 and 6.7 in patients with adenoma and carcinoma, respectively. In addition, the temperature of the human intestinal tract ranges from 36° C. to 40° C. depending on the individual's metabolic state. In the illustrative example five plant-derived myrosinase orthologues with minimal glycosylation sites and the absence of the co-factor-binding sites using the BLAST search and the Enzyme Function Initiative-Enzyme Similarity Tool (EFI-EST), are compared to the well-characterized myrosinases from Brevicoryne brassicae (BMY1) and Arabidopsis thaliana (TGG1) (FIG. 2a and FIG. 7).
Gene cloning, protein expression and purification. Myrosinase genes are optimized for E. coli expression and cloned into the pET28b expression vector. The plasmids are transformed into E. coli BL21 (DE3) cultured in lysogeny broth (LB) (BD, Le Pont de Claix, France) at 37° C., 225 rpm to OD600 0.6 followed by 0.5 mM isopropyl β-D-1-thiogalactopyranoside (IPTG) induction at 16° C., 180 rpm for 16 hours. Cells are harvested, resuspended in lysis buffer (50 mM Tris-Cl, 300 mM NaCl, 10% glycerol, 1 mM dithiothreitol [DTT], pH 8.0) and lysed using Emulsiflex C-3 (Avestin). Expressed myrosinases are purified by IMAC Ni-NTA purification followed by Hi-Load Superdex 200 size exclusion column chromatography (GE, Uppsala, Sweden). The purified protein is concentrated and stored at −80° C. Pilot scale protein purification and enzymatic assay is conducted.
Myrosinase screening assay. The enzymatic reaction is measured for the release of glucose resulting from sinigrin hydrolysis. The reaction is conducted in sodium phosphate-buffered solution supplied in the Amplex® Red Glucose/Glucose Oxidase Assay Kit (Thermo Fisher Scientific, Geel, Belgium). The reaction buffer is prepared at different pH values (6.0, 6.5, 7.4 and 8.0) and at different reaction temperatures (34° C., 37° C., and 40° C.). The reaction is prepared using 0.1 μM purified myrosinase added to 1× Amplex® Red Glucose Assay reaction mixture and was kick-started with the corresponding concentration of sinigrin. The reaction can be measured at 560 nm absorbance and fluorescence (λex=540 nm, λem=590 nm) using a Synergy H1 Multi-Mode microtiter plate reader (BioTek®, Winooski, USA). The reaction initial velocity (VO) is determined and fitted into a Michaelis-Menten curve. Vmax and KM are determined by fitting into the Michaelis-Menten equation (Eq. 1) using GraphPad Prism Software. ^v=Vmax*[Sinigrin]/(KM+[Sinigrin]) (Eq.1)
Table S1|Myrosinase activity assay screening under various pH and temperature conditions (n=3 independent experiments, each measurement performed in triplicates; mean[…].).

Arabidopsis thaliana myrosinase TGG1 (Arabidopsis thaliana)
Km (other: pH 6.0, 37° C., pH 6.0, 37.0 °C): 361 ± 11 µM
Km (other: pH 6.5, 37° C., pH 6.5, 37.0 °C): 198 ± 20 µM
Km (other: pH 7.4, 34° C., pH 7.4, 34.0 °C): 78 ± 8 µM
Km (other: pH 7.4, 37° C., pH 7.4, 37.0 °C): 71 ± 3 µM
Km (other: pH 7.4, 40° C., pH 7.4, 40.0 °C): 88 ± 9 µM
Km (other: pH 8.0, 37° C., pH 8.0, 37.0 °C): 137 ± 69 µM
